Reference: patent publication US20180010140A1 (WASHINGTON STATE UNIVERSITY, published 2018)

B1: WRI1 (At3 g54320), yeast two-hybrid construct (other, Arabidopsis thaliana, UniProt Q6X5Y6 1-430, looked up)
chain: MKKRLTTSTCSSSPSSSVSSSTTTSSPIQSEAPRPKRAKRAKKSSPSGDKSHNPTSPASTRRSSIYRGVTRHRWTGRFEAHLWDKSSWNSIQNKKGKQVYLGAYDSEEAAAHTYDLAALKYWGPDTILNFPAETYTKELEEMQRVTKEEYLASLRRQSSGFSRGVSKYRGVARHHHNGRWEARIGRVFGNKYLYLGTYNTQEEAAAAYDMAAIEYRGANAVTNFDISNYIDRLKKKGVFPFPVNQANHQEGILVEAKQEVETREAKEEPREEVKQQYVEEPPQEEEEKEEEKAEQQEAEIVGYSEEAAVVNCCIDSSTIMEMDRCGDNNELAWNFCMMDTGFSPFLTDQNLANENPIEYPELFNELAFEDNIDFMFDDGKHECLNLENLDCCVVGRESPPSSSSPLSCLSTDSASSTTTTTTSVSCNYLV
notes: Yeast two-hybrid fusion (bait pBTM116-D9 against BPM1 as prey; both bait and prey in the self-assembly test); also called WRINKLED1

Tests used:
Assay in all cases: yeast two-hybrid
yeast two-hybrid = target: the molecule itself
Protocol: (§1) If not otherwise stated in this and subsequent FIGS. 30 μg of total protein extract were loaded as input, and experiments were done with 14-days old seedlings.
(§2) SDII selection medium supplemented with uracil and His was used as a transformation control, while for interaction studies, SDIV minimal medium was chosen without uracil and His supplements. Photos were taken from single spots 7 days after plating. […] Extraction and washing buffers contained at all times 1 mM PMSF (Sigma-Aldrich) and 10 μM MG132 (Sigma-Aldrich) to prevent proteolytic and proteasomal activities, respectively. […] In general, proteins were incubated at least 1.5 h at 4° C. under shaking conditions before being centrifuged.

[1] = target: T1, BPM4 (At3 g03740), yeast two-hybrid construct (Arabidopsis thaliana, UniProt Q9SRV1 1-465, limits assumed)
T1 construct: Yeast two-hybrid fusion
T1 sequence (looked up): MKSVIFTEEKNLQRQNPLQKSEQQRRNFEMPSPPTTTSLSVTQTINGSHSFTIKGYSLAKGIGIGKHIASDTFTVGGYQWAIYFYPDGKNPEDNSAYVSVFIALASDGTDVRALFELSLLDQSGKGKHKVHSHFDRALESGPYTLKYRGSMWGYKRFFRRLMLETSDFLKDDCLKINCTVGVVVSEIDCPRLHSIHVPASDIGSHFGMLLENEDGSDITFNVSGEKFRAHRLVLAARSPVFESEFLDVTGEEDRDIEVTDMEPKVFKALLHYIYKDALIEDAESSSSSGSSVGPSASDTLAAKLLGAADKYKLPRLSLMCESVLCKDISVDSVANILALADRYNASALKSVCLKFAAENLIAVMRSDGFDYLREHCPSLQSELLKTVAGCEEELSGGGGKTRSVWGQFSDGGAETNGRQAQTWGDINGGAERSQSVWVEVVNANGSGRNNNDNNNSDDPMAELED
Protocol: as §1, §2

[2] = target: B1
Protocol: as §1, §2

Binder	binding result (yeast two-hybrid)	binding result [1]	binding result [2]
B1	binds	binds	–
BPM1 (At5 g19000), yeast two-hybrid construct (other, Arabidopsis thaliana, UniProt Q8L765 1-407, looked up, also called BTB/POZ-MATH protein 1) MGTTRVCSEVSSGSSKSLSQSLTVSTSTTETVNGFHEFKICGYSLAKGVGVGKYVASDTFMVGGYSWAIYFYPDGKSPEDNSSYVSLFIALASEGADVRALFELTLVDQSGNGKHKVHSHFGRALDSGPYTLKYRGSMWGYKRFFRRSSLESSDYLKENSLLVRCRVGVVKSVTEGPRYYNIPVPVSNLGQQLGNLLESGKGCDVVFQVDGETFNAHKLVLATRSPVFNAQLFGPLGDRNTKCITIEDMEAPIFKVLLHFIYWDELPDMQELIGTDSTLASTLVAQHLLAAADRYALERLKAICESKLCEGVAINTVATTLALAEQHHCLQLKAVCLKFVALPENLKAVMQTDGFDYLKESCPSLLTELLQYVARLSEHSVIVSGHRKEIFADGCDASGRRVKPRLH	–	–	binds
BPM3 (At2 g39760), yeast two-hybrid construct (other, Yeast two-hybrid fusion (pACT2 or pBTM116-D9)) MSTVGGIEQLIPDSVSTSFIETVNGSHQFTIQGYSLAKGMSPGKFIQSDIFSVGGYDWAIYFYPDGKNPEDQSSYISLFIALASDSNDIRALFELTLMDQSGKGKHKVHSHFDRALEGGPYTLKYKGSMWGYKRFFKRSALETSDYLKDDCLVINCTVGVVRARLEGPKQYGIVLPLSNMGQGLKDLLDSEVGCDIAFQVGDETYKAHKLILAARSPVFRAQFFGPIGNNNVDRIVIDDIEPSIFKAMLSFIYTDVLPNVHEITGSTSASSFTNMIQHLLAAADLYDLARLKILCEVLLCEKLDVDNVATTLALAEQHQFLQLKAFCLEFVASPANLGAVMKSEGFKHLKQSCPTLLSELLNTVAAADKSSTSGQSNKKRSASSVLGCDTTNVRQLRRRTRKEVRAVS	–	–	binds
BPM5 (At5 g21010), yeast two-hybrid construct (other, Arabidopsis thaliana, UniProt Q1EBV6 1-410, looked up, Yeast two-hybrid fusion) MSESVIQGSNPDRVLSPTSSKSVTQTVNGSHQFVIQGYSLAKGMGIGKHIASDNFSVGGYQWGIFFYPDGKNPEDNSSYVSVFIALASEGTEVRALFELALVDQSGKGKHKVHSHFERSLDGGPYTLKYRGSMWGYKRFFRRSILETSDYLKDDCLIINCTVGVVVSEILCPQLHSVHVPDSELGSHFGVLLDSMEGSDITFNIAGEKFLAHKLVLAARSPFFKSKFFSEFEANNTEVTINDLEPKVFKALLQFMYKDSLPEDVEPATAHTFERLKLSEIYETLIVKVLAAADKYDLIRLRLLCESHICKGVSVKSVAKILALADRYNAKELKGVCLKFTAENLAAVLETDAYQQMKDECVTLQSELLKAVAGHEEGSNSTGGAKSQSVWAQLSDGGGDTTSRHVRQRTT	–	–	binds
